Data from patent US20240084017A1 (ASCENDO BIOTECHNOLOGY, published 2024).
Residue numbers refer to the chain shown, from its start. Each block holds one binder with its values, some of them ahead of it.

Tests used:
[1] = molecular target: T1, human Mac-1 (integrin αMβ2, CD11b/CD18) (human, UniProt P11215 17-1152; P05107 23-769); assay: flow cytometry, HEK293/Mac-1 cells, PBS (Mock), 10 µg/ml of this antibody; binding of reporter mAb KIM127 read
Experimental: (§1) The HEK293/Mac-1 cells (clone1-4) were counted and washed twice with staining buffer (PBS containing 1% FBS, and 0.1% sodium azide). Cells were adjusted at a concentration of 1×10⁵ cells/ml in staining buffer and treated with/without 0.25 mM MnCl₂ (Sigma). Cells were treated with anti-Mac-1 antibodies and fluorescent conjugated anti-human IgG4 antibodies and incubated for 15 mins. After washing with the staining buffer, the cells were analyzed by flow cytometry. In some examples, these cells were treated with the antibodies (ICRF44, KIM127, m24, or isotype control) in the presence or absence 10 μg/ml anti-Mac-1 antibodies. The cells were then incubated at 37° C. for 30 min. After washing with the staining buffer, the cells were analyzed by flow cytometry.
(§2) TABLE III The anti-Mac-1 antibodies can serve as agonist to enhance the conformational change of Mac-1. HEK293/Mac-1 cells (clone1-4) were incubated with 10 μg/ml anti-Mac-1 antibodies under the PBS (Mock) condition. Binding of KIM127 or m24 was detected using flow cytometry.

[2] = molecular target: T1, human Mac-1 (integrin αMβ2, CD11b/CD18); assay: flow cytometry, HEK293/Mac-1 cells, PBS/MnCl2 (Mn2+), 10 µg/ml of this antibody; binding of reporter mAb KIM127 read
Experimental: as §1
(§3) TABLE IV The anti-Mac-1 antibody can serve as an antagonist to reduce the conformational change of Mac-1. HEK293/Mac-1 cells (clone1-4) were incubated with 10 μg/ml anti-Mac-1 antibodies under the PBS/MnCl₂ (Mn²⁺) condition. Binding of KIM127 or m24 was detected using flow cytometry.

[3] = molecular target: T1, human Mac-1 (integrin αMβ2, CD11b/CD18); assay: flow cytometry, HEK293/Mac-1 cells (clone 1-4), PBS/MnCl2 (Mn2+)
Experimental: as §1
(§4) TABLE II The anti-Mac-1 antibodies selectively bind to different statuses of human Mac-1. HEK293/Mac-1 cells (clone1-4) were incubated in PBS (Mock), or PBS/MnCl₂ (Mn²⁺). Binding of isotype control IgG, the CD11b specific mAb (ICRF44), the CD11b activation-sensing mAb (CBRM1/5), or the screened anti-Mac-1 antibody was detected using flow cytometry.

[4] = molecular target: T1, human Mac-1 (integrin αMβ2, CD11b/CD18); assay: flow cytometry, HEK293/Mac-1 cells; MFI in PBS over MFI in PBS/MnCl2
Experimental: as §1, §4

[5] = molecular target: T1, human Mac-1 (integrin αMβ2, CD11b/CD18); assay: flow cytometry, HEK293/Mac-1 cells (clone 1-4), PBS (Mock)
Experimental: as §1, §4

[6] = molecular target: T1, human Mac-1 (integrin αMβ2, CD11b/CD18); assay: flow cytometry, HEK293/Mac-1 cells, PBS (Mock), 10 µg/ml of this antibody; binding of reporter mAb m24 read
Experimental: as §1, §2

[7] = molecular target: T1, human Mac-1 (integrin αMβ2, CD11b/CD18); assay: flow cytometry, HEK293/Mac-1 cells, PBS/MnCl2 (Mn2+), 10 µg/ml of this antibody; binding of reporter mAb m24 read
Experimental: as §1, §3

KIM127 (Expression relative to IgG4) [1]: 1.13 relative to IgG4 | KIM127 (Expression relative to IgG4) [2]: 1.48 relative to IgG4 | Mn^2+ MFI [3]: 13000 MFI | Mock/Mn^2+ Ratio [4]: 0.36 | Mock MFI [5]: 4630 MFI | m24 (Expression relative to IgG4) [6]: 3.77 relative to IgG4 | m24 (Expression relative to IgG4) [7]: 3.87 relative to IgG4
B1: anti-Mac-1 antibody clone DF4M-31 (antibody, human IgG4, V domains shown)
VH: EVQLVESGGGLVQPGGSLRLSCAASGFTFTSATMSWVRQAPGKGLEWVSIISPGGSETYYADSVKGRFTISRDNSKNTLYLQMNSLRAEDTAVYYCARGGDYPSYYMDPWGQGTLVTVSS
VL: DIQMTQSPSSLSASVGDRVTITCRASQSISNYLAWYQQKPGKAPKLLIYGTSSLQSGVPSRFSGSGSGTDFTLTISSLQPEDFATYYCQQGHQWPWTFGQGTKVEIK

KIM127 (Expression relative to IgG4) [1]: 1.92 relative to IgG4 | KIM127 (Expression relative to IgG4) [2]: 1.74 relative to IgG4 | Mn^2+ MFI [3]: 39400 MFI | Mock/Mn^2+ Ratio [4]: 0.72 | Mock MFI [5]: 28500 MFI | m24 (Expression relative to IgG4) [6]: 16.8 relative to IgG4 | m24 (Expression relative to IgG4) [7]: 3.5 relative to IgG4
B2: anti-Mac-1 antibody clone 25A06 (antibody, human IgG4, V domains shown)
VH: EVQLVESGGGLVQPGGSLRLSCAASGFTFSSYYMSWVRQAPGKGLEWVSTINYDGSEKDYADSVKGRFTISRDNSKNTLYLQMNSLRAEDTAVYYCARDRLGNYPWFDVWGQGTLVTVSS
VL: B1 VL with G50D, T51A, S52N, S53N, G91S, H92Y, Q93S, W96L

KIM127 (Expression relative to IgG4) [1]: 1.05 relative to IgG4 | KIM127 (Expression relative to IgG4) [2]: 1.49 relative to IgG4 | Mn^2+ MFI [3]: 23900 MFI | Mock/Mn^2+ Ratio [4]: 0.42 | Mock MFI [5]: 9940 MFI | m24 (Expression relative to IgG4) [6]: 1.92 relative to IgG4 | m24 (Expression relative to IgG4) [7]: 2.36 relative to IgG4
B3: anti-Mac-1 antibody clone 24H01 (antibody, human IgG4, V domains shown)
VH: EVQLVESGGGLVQPGGSLRLSCAASGFTFNNYYMSWVRQAPGKGLEWVSIIYYDGSEADYADSVKGRFTISRDNSKNTLYLQMNSLRAEDTAVYYCARNKDIYSVYGMDYWGQGTLVTVSS
VL: B1 VL with G50A, S53N, G91A, H92N, Q93N, W94T, W96P

KIM127 (Expression relative to IgG4) [1]: 1.82 relative to IgG4 | KIM127 (Expression relative to IgG4) [2]: 1.64 relative to IgG4 | Mn^2+ MFI [3]: 35200 MFI | Mock/Mn^2+ Ratio [4]: 0.69 | Mock MFI [5]: 24400 MFI | m24 (Expression relative to IgG4) [6]: 15.7 relative to IgG4 | m24 (Expression relative to IgG4) [7]: 4.37 relative to IgG4
B4: anti-Mac-1 antibody clone DF4-22 (antibody, human IgG4, V domains shown)
VH: EVQLVESGGGLVQPGGSLRLSCAASGFTFTDYNVHWVRQAPGKGLEWVSGINSSGSETNYADSVKGRFTISRDNSKNTLYLQMNSLRAEDTAVYYCARDSVFKTVGGYDAVMDYWGQGTLVTVSS
VL: B1 VL with S30Y, S53T, Q89M, G91S, H92Y, Q93S, W94S, W96T

KIM127 (Expression relative to IgG4) [1]: 0.99 relative to IgG4 | KIM127 (Expression relative to IgG4) [2]: 1.05 relative to IgG4 | Mn^2+ MFI [3]: 16600 MFI | Mock/Mn^2+ Ratio [4]: 0.9 | Mock MFI [5]: 15000 MFI | m24 (Expression relative to IgG4) [6]: 1.2 relative to IgG4 | m24 (Expression relative to IgG4) [7]: 1.38 relative to IgG4
B5: anti-Mac-1 antibody clone 27D06 (antibody, human IgG4, V domains shown)
VH: QVKLQESGAEVVKPGASVKISCKASGYSFTDYNMNWVKQSNGKSLEWIGVINPNYGTTSYNQKFKGKATLTVDQSSSTAYMQLNSLTSEDSAVYYCARTYDYDGDAFAYWGQGTTVTVSS
VL: DIELTQSPALMSASPGEKVTMTCRASSSVSSNNLHWYQQKSGASPKLWIYSTSNLATGAPARFSGSGSGTSYSLTISSMEAEDAATYYCQQWNSNPPTFGGGTKLEIK

KIM127 (Expression relative to IgG4) [1]: 1.05 relative to IgG4 | KIM127 (Expression relative to IgG4) [2]: 0.7 relative to IgG4 | Mn^2+ MFI [3]: 39800 MFI | Mock/Mn^2+ Ratio [4]: 0.91 | Mock MFI [5]: 36100 MFI | m24 (Expression relative to IgG4) [6]: 0.78 relative to IgG4 | m24 (Expression relative to IgG4) [7]: 0.88 relative to IgG4
B6: anti-Mac-1 antibody clone 27A04 (antibody, human IgG4, V domains shown)
VH: B5 VH with E6Q, A9P, V11L
VL: DIELTQSPAIMSASPGEKVTMTCSASSSVSYMHWYQQKSGTSPKRWIYDTSKLASGVPARFSGSGSGTSYSLTISSMEAEDAATYYCQQWSSNPPTFGAGTKLELK
